Measurements as given in publication PMC9482650, “Quantitative fragmentomics allow affinity mapping of interactomes” (Nature Communications, 2022).

T1: APBA1_1, Q02410
T1 sequence (Q02410 651-752, limits assumed, looked up): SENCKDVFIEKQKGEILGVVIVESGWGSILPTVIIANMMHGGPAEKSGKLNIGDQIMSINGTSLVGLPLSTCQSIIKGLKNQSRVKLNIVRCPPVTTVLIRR

T2: APBA1_2, Q02410
T2 sequence (Q02410 742-832, limits assumed, looked up): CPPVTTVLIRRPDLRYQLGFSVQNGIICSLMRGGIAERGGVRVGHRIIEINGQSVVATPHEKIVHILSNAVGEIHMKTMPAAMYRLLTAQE

T3: APBA2_1, Q99767
T3 sequence (Q99767 563-664, limits assumed, looked up): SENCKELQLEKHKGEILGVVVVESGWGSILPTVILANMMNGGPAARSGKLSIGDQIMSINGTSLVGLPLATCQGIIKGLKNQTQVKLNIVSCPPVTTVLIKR

T4: DLG3_2, Q92796
T4 sequence (Q92796 221-321, limits assumed, looked up): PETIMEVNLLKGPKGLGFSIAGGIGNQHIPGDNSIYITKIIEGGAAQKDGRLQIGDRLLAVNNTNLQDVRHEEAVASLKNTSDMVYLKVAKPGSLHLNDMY

T5: GRIP1_3, Q9Y3R0
T5 sequence (Q9Y3R0 247-346, limits assumed, looked up): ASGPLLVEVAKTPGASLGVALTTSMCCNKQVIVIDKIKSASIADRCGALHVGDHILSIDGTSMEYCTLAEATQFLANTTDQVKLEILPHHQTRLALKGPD

T6: GRIP1_5, Q9Y3R0
T6 sequence (Q9Y3R0 568-668, limits assumed, looked up): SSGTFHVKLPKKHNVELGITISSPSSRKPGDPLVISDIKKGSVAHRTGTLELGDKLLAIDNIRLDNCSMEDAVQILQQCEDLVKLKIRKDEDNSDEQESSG

T7: LNX2_2, Q8N448
T7 sequence (Q8N448 334-432, limits assumed, looked up): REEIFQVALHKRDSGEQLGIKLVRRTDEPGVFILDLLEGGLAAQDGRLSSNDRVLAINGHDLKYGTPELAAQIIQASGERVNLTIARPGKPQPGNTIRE

T8: MPP2, Q14168
T8 sequence (Q14168 180-250, limits assumed, looked up): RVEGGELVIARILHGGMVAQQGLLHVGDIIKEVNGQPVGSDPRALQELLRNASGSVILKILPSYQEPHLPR

T9: NHERF3_1, Q5T2W1
T9 sequence (Q5T2W1 4-100, limits assumed, looked up): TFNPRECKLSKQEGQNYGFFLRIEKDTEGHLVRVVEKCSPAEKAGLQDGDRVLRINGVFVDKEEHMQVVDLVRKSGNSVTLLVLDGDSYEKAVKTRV

T10: NHERF3_3, Q5T2W1
T10 sequence (Q5T2W1 238-333, limits assumed, looked up): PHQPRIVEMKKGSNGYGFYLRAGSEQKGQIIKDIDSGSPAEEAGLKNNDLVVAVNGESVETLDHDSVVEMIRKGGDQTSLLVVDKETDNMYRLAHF

T11: RHPN1, Q8TCX5
T11 sequence (Q8TCX5 508-602, limits assumed, looked up): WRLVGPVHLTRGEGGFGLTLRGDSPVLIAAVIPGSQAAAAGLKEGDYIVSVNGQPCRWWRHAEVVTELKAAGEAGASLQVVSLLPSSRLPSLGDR

T12: SYNJ2BP, P57105
T12 sequence (P57105 8-110, limits assumed, looked up): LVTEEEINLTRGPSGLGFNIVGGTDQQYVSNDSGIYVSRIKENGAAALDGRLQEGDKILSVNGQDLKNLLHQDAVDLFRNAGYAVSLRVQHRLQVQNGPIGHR


Target: T1, APBA1_1, Q02410
Assay: holdup assay
Design: key: below the threshold = too weak to quantify, mostly under pKd 3.1 to 4
Conditions: plain residues with an end cap or a label only (N-terminal biotin on a linker: ado-ado)

Binder | pKd
SRPHTNETSL [MCC, P23508] | below the threshold
GDSSRKEYFI [GYPC, P04921] | 3.65

Target: T2, APBA1_2, Q02410
Assay: holdup assay
Design: key: below the threshold = too weak to quantify, mostly under pKd 3.1 to 4
Conditions: plain residues with an end cap or a label only (N-terminal biotin on a linker: ado-ado)

Binder | pKd
SRPHTNETSL [MCC, P23508] | 3.59
GDSSRKEYFI [GYPC, P04921] | 3.73

Target: T3, APBA2_1, Q99767
Assay: holdup assay
Design: key: below the threshold = too weak to quantify, mostly under pKd 3.1 to 4
Conditions: plain residues with an end cap or a label only (N-terminal biotin on a linker: ado-ado)

Binder | pKd
SRPHTNETSL [MCC, P23508] | below the threshold
GDSSRKEYFI [GYPC, P04921] | 3.55

Target: DLG2_3, Q15700
Assay: holdup assay
Design: key: below the threshold = too weak to quantify, mostly under pKd 3.1 to 4
Conditions: plain residues with an end cap or a label only (N-terminal biotin on a linker: ado-ado)

Binder | pKd
SRPHTNETSL [MCC, P23508] | 3.95
GDSSRKEYFI [GYPC, P04921] | 3.84

Target: T4, DLG3_2, Q92796
Assay: holdup assay
Design: key: below the threshold = too weak to quantify, mostly under pKd 3.1 to 4
Conditions: plain residues with an end cap or a label only (N-terminal biotin on a linker: ado-ado)

Binder | pKd
SRPHTNETSL [MCC, P23508] | 3.72
GDSSRKEYFI [GYPC, P04921] | 4.19

Target: DLG4_1, P78352
Assay: holdup assay
Design: key: below the threshold = too weak to quantify, mostly under pKd 3.1 to 4
Conditions: plain residues with an end cap or a label only (N-terminal biotin on a linker: ado-ado)

DLG4_1, P78352, sequence (P78352 62-152): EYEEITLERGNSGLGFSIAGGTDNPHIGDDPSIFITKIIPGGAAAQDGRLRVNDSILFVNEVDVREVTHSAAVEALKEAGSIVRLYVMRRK

Binder | pKd
SRPHTNETSL [MCC, P23508] | below the threshold
GDSSRKEYFI [GYPC, P04921] | below the threshold

Target: DLG4_2, P78352
Assay: holdup assay
Design: key: below the threshold = too weak to quantify, mostly under pKd 3.1 to 4
Conditions: plain residues with an end cap or a label only (N-terminal biotin on a linker: ado-ado)

DLG4_2, P78352, sequence (P78352 155-259): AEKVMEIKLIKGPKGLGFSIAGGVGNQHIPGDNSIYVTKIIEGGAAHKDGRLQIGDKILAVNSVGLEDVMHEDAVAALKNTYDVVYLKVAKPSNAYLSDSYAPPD

Binder | pKd
SRPHTNETSL [MCC, P23508] | 3.83
GDSSRKEYFI [GYPC, P04921] | 3.61

Target: FRMPD3, Q5JV73
Assay: holdup assay
Design: key: below the threshold = too weak to quantify, mostly under pKd 3.1 to 4
Conditions: plain residues with an end cap or a label only (N-terminal biotin on a linker: ado-ado)

FRMPD3, Q5JV73, sequence (Q5JV73 12-100): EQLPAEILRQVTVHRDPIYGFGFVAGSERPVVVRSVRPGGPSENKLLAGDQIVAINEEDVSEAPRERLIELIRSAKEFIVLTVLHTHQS

Binder | pKd
SRPHTNETSL [MCC, P23508] | below the threshold
GDSSRKEYFI [GYPC, P04921] | below the threshold

Target: GRID2IP_2, A4D2P6
Assay: holdup assay
Design: key: below the threshold = too weak to quantify, mostly under pKd 3.1 to 4
Conditions: plain residues with an end cap or a label only (N-terminal biotin on a linker: ado-ado)

GRID2IP_2, A4D2P6, sequence (A4D2P6 272-370): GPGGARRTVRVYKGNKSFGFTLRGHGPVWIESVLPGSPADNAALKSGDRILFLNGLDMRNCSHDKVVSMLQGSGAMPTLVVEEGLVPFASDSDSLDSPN

Binder | pKd
SRPHTNETSL [MCC, P23508] | 4.21
GDSSRKEYFI [GYPC, P04921] | below the threshold

Target: T5, GRIP1_3, Q9Y3R0
Assay: holdup assay
Design: key: below the threshold = too weak to quantify, mostly under pKd 3.1 to 4
Conditions: plain residues with an end cap or a label only (N-terminal biotin on a linker: ado-ado)

Binder | pKd
SRPHTNETSL [MCC, P23508] | below the threshold
GDSSRKEYFI [GYPC, P04921] | below the threshold

Target: T6, GRIP1_5, Q9Y3R0
Assay: holdup assay
Design: key: below the threshold = too weak to quantify, mostly under pKd 3.1 to 4
Conditions: plain residues with an end cap or a label only (N-terminal biotin on a linker: ado-ado)

Binder | pKd
SRPHTNETSL [MCC, P23508] | below the threshold
GDSSRKEYFI [GYPC, P04921] | below the threshold

Target: GRIP2_4, Q9C0E4
Assay: holdup assay
Design: key: below the threshold = too weak to quantify, mostly under pKd 3.1 to 4
Conditions: plain residues with an end cap or a label only (N-terminal biotin on a linker: ado-ado)

GRIP2_4, Q9C0E4, sequence (Q9C0E4 446-548): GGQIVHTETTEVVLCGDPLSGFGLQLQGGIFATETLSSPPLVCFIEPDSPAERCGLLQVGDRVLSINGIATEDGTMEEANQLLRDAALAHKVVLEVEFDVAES

Binder | pKd
SRPHTNETSL [MCC, P23508] | below the threshold
GDSSRKEYFI [GYPC, P04921] | below the threshold

Target: GRIP2_5, Q9C0E4
Assay: holdup assay
Design: key: below the threshold = too weak to quantify, mostly under pKd 3.1 to 4
Conditions: plain residues with an end cap or a label only (N-terminal biotin on a linker: ado-ado)

GRIP2_5, Q9C0E4, sequence (Q9C0E4 544-642): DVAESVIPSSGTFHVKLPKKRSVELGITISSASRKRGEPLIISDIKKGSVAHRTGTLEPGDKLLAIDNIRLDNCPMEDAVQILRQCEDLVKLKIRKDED

Binder | pKd
SRPHTNETSL [MCC, P23508] | below the threshold
GDSSRKEYFI [GYPC, P04921] | below the threshold

Target: HTRA1, Q92743
Assay: holdup assay
Design: key: below the threshold = too weak to quantify, mostly under pKd 3.1 to 4
Conditions: plain residues with an end cap or a label only (N-terminal biotin on a linker: ado-ado)

HTRA1, Q92743, sequence (Q92743 360-477): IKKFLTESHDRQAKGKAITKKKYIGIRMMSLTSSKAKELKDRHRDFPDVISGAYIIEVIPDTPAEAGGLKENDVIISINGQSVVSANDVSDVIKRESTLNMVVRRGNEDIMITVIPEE

Binder | pKd
SRPHTNETSL [MCC, P23508] | below the threshold
GDSSRKEYFI [GYPC, P04921] | 4.74

Target: IL16_3, Q14005
Assay: holdup assay
Design: key: below the threshold = too weak to quantify, mostly under pKd 3.1 to 4
Conditions: plain residues with an end cap or a label only (N-terminal biotin on a linker: ado-ado)

IL16_3, Q14005, sequence (Q14005 1107-1207): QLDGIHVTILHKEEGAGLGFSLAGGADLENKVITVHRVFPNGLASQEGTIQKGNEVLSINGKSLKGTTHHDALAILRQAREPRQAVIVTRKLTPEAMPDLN

Binder | pKd
SRPHTNETSL [MCC, P23508] | below the threshold
GDSSRKEYFI [GYPC, P04921] | below the threshold

Target: Inadl_8, Q8NI35
Assay: holdup assay
Design: key: below the threshold = too weak to quantify, mostly under pKd 3.1 to 4
Conditions: plain residues with an end cap or a label only (N-terminal biotin on a linker: ado-ado)

Inadl_8, Q8NI35, sequence (Q8NI35 1425-1530): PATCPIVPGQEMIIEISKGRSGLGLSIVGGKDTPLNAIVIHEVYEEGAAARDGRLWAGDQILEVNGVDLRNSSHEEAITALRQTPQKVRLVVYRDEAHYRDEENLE

Binder | pKd
SRPHTNETSL [MCC, P23508] | below the threshold
GDSSRKEYFI [GYPC, P04921] | below the threshold

Target: T7, LNX2_2, Q8N448
Assay: holdup assay
Design: key: below the threshold = too weak to quantify, mostly under pKd 3.1 to 4
Conditions: plain residues with an end cap or a label only (N-terminal biotin on a linker: ado-ado)

Binder | pKd
SRPHTNETSL [MCC, P23508] | below the threshold
GDSSRKEYFI [GYPC, P04921] | below the threshold

Target: MAGI1_1, Q96QZ7
Assay: holdup assay
Design: key: below the threshold = too weak to quantify, mostly under pKd 3.1 to 4
Conditions: plain residues with an end cap or a label only (N-terminal biotin on a linker: ado-ado)

MAGI1_1, Q96QZ7, sequence (Q96QZ7 1-106): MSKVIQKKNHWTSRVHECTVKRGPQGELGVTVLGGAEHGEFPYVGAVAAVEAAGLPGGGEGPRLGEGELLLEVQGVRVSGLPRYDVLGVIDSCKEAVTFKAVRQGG

Binder | pKd
SRPHTNETSL [MCC, P23508] | below the threshold
GDSSRKEYFI [GYPC, P04921] | below the threshold

Target: T8, MPP2, Q14168
Assay: holdup assay
Design: key: below the threshold = too weak to quantify, mostly under pKd 3.1 to 4
Conditions: plain residues with an end cap or a label only (N-terminal biotin on a linker: ado-ado)

Binder | pKd
SRPHTNETSL [MCC, P23508] | below the threshold
GDSSRKEYFI [GYPC, P04921] | 4.36

Target: T9, NHERF3_1, Q5T2W1
Assay: holdup assay
Design: key: below the threshold = too weak to quantify, mostly under pKd 3.1 to 4
Conditions: plain residues with an end cap or a label only (N-terminal biotin on a linker: ado-ado)

Binder | pKd
SRPHTNETSL [MCC, P23508] | 5.29
GDSSRKEYFI [GYPC, P04921] | 3.69

Target: T10, NHERF3_3, Q5T2W1
Assay: holdup assay
Design: key: below the threshold = too weak to quantify, mostly under pKd 3.1 to 4
Conditions: plain residues with an end cap or a label only (N-terminal biotin on a linker: ado-ado)

Binder | pKd
SRPHTNETSL [MCC, P23508] | below the threshold
GDSSRKEYFI [GYPC, P04921] | below the threshold

Target: NOS1, P29475
Assay: holdup assay
Design: key: below the threshold = too weak to quantify, mostly under pKd 3.1 to 4
Conditions: plain residues with an end cap or a label only (N-terminal biotin on a linker: ado-ado)

NOS1, P29475, sequence (P29475 9-101): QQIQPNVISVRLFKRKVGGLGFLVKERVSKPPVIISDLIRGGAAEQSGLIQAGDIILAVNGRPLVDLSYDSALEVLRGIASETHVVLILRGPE

Binder | pKd
SRPHTNETSL [MCC, P23508] | below the threshold
GDSSRKEYFI [GYPC, P04921] | 3.64

Target: PDLIM1, O00151
Assay: holdup assay
Design: key: below the threshold = too weak to quantify, mostly under pKd 3.1 to 4
Conditions: plain residues with an end cap or a label only (N-terminal biotin on a linker: ado-ado)

PDLIM1, O00151, sequence (O00151 1-87): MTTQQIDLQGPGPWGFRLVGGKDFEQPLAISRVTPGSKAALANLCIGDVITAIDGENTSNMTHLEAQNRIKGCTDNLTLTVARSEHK

Binder | pKd
SRPHTNETSL [MCC, P23508] | below the threshold
GDSSRKEYFI [GYPC, P04921] | below the threshold

Target: PICK1, Q9NRD5
Assay: holdup assay
Design: key: below the threshold = too weak to quantify, mostly under pKd 3.1 to 4
Conditions: plain residues with an end cap or a label only (N-terminal biotin on a linker: ado-ado)

PICK1, Q9NRD5, sequence (Q9NRD5 17-115): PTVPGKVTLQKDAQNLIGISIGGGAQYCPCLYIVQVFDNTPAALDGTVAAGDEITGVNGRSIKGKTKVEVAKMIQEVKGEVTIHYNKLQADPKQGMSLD

Binder | pKd
SRPHTNETSL [MCC, P23508] | below the threshold
GDSSRKEYFI [GYPC, P04921] | below the threshold

Target: T11, RHPN1, Q8TCX5
Assay: holdup assay
Design: key: below the threshold = too weak to quantify, mostly under pKd 3.1 to 4
Conditions: plain residues with an end cap or a label only (N-terminal biotin on a linker: ado-ado)

Binder | pKd
SRPHTNETSL [MCC, P23508] | 4.64
GDSSRKEYFI [GYPC, P04921] | below the threshold

Target: T12, SYNJ2BP, P57105
Assay: holdup assay
Design: key: below the threshold = too weak to quantify, mostly under pKd 3.1 to 4
Conditions: plain residues with an end cap or a label only (N-terminal biotin on a linker: ado-ado)

Binder | pKd
SRPHTNETSL [MCC, P23508] | 4.84
GDSSRKEYFI [GYPC, P04921] | below the threshold
